Test results published in US20070093443.

Legend:
[1] = target: T1, Ac-GLAR-AMC
T1 chain: GLAR

[2] = target: T2, Ac-RQAR-AMC
T2 chain: RQAR

[3] = target: T3, Ac-SLGR-AMC
T3 chain: SLGR

[4] = target: T4, Complement C2 (human)
T4 chain: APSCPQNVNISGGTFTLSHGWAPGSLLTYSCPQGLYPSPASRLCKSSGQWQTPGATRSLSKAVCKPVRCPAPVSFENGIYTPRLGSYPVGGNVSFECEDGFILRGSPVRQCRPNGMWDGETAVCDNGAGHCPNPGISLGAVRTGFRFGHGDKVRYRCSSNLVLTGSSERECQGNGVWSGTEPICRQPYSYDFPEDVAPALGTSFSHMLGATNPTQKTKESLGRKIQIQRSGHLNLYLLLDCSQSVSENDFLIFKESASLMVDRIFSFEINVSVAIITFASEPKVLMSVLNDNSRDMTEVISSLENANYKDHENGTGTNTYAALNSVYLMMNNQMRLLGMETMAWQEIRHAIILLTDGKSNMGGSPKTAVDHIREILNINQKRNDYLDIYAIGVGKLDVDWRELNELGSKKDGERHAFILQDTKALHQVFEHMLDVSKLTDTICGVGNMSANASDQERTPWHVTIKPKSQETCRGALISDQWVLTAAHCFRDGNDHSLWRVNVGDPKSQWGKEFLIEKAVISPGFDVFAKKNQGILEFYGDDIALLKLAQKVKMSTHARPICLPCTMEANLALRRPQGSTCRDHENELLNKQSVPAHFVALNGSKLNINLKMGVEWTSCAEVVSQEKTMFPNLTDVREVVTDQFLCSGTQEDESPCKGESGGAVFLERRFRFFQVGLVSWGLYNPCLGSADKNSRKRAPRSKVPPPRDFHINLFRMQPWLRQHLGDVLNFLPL

[5] = target: Complement C3 (human)
[6] = target: T5, Complement C4 (human)
T5 chain 1: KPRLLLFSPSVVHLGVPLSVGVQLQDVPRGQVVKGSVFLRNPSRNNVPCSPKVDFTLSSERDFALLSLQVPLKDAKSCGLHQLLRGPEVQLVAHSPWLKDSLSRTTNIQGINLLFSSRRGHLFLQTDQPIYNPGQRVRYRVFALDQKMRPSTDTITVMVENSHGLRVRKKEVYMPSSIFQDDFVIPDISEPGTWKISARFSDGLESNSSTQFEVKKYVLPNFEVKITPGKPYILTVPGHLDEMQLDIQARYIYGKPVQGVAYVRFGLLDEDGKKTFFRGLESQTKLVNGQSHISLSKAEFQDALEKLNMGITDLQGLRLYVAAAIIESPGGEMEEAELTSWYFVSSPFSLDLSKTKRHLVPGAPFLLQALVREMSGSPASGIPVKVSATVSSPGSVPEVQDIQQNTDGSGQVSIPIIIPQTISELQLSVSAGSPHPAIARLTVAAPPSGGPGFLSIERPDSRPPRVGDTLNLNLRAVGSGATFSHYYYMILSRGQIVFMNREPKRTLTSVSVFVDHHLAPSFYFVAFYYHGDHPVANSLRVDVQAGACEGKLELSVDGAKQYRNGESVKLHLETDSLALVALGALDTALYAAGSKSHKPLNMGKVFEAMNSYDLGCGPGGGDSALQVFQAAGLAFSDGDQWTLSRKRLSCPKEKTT
T5 chain 2: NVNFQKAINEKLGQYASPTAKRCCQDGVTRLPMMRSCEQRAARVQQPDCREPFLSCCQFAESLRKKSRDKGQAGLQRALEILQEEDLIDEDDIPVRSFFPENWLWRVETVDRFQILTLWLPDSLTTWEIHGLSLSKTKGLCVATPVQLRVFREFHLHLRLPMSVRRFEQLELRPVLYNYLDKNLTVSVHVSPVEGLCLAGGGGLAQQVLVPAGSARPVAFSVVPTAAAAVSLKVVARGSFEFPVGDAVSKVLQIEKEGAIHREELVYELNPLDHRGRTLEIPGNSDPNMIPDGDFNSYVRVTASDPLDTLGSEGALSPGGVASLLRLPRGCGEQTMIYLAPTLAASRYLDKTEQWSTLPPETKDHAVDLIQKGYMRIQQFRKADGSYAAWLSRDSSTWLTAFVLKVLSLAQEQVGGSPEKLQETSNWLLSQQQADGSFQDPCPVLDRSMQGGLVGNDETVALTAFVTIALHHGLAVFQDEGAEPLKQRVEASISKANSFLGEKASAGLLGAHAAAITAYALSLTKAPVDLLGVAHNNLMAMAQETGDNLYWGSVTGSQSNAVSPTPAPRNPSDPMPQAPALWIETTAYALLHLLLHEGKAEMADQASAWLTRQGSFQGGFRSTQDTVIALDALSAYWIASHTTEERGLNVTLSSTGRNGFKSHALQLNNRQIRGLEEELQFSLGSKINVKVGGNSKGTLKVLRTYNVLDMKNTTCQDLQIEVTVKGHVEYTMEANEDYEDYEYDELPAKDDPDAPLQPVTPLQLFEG
T5 chain 3: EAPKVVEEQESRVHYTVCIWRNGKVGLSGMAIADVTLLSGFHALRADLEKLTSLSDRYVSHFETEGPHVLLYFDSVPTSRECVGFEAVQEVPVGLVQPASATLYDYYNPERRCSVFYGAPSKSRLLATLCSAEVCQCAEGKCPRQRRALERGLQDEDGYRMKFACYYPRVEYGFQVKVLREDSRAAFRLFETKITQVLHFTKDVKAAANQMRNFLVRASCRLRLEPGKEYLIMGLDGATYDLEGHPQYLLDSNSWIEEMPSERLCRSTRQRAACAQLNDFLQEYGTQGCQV

[7] = target: Complement C5 (human)
Sequence of Complement C5 (human) (chain, as listed by the source, chain 1 of 2): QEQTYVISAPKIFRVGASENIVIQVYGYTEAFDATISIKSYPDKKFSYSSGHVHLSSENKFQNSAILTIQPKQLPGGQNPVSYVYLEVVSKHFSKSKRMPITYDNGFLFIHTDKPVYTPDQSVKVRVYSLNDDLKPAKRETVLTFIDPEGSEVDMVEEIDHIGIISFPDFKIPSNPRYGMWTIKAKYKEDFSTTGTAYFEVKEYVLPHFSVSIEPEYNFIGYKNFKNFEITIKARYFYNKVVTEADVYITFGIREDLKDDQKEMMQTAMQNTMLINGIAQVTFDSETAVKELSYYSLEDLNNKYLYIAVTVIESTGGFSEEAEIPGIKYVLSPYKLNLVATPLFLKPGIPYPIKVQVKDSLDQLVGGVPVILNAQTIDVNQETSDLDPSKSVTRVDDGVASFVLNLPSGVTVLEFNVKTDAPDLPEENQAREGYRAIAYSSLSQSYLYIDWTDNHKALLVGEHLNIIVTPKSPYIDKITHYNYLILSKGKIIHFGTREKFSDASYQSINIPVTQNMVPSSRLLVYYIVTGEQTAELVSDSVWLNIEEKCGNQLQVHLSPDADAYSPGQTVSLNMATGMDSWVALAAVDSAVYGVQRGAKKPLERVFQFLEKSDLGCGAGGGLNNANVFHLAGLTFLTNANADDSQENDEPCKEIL
Sequence of Complement C5 (human) (chain, as listed by the source, chain 2 of 2): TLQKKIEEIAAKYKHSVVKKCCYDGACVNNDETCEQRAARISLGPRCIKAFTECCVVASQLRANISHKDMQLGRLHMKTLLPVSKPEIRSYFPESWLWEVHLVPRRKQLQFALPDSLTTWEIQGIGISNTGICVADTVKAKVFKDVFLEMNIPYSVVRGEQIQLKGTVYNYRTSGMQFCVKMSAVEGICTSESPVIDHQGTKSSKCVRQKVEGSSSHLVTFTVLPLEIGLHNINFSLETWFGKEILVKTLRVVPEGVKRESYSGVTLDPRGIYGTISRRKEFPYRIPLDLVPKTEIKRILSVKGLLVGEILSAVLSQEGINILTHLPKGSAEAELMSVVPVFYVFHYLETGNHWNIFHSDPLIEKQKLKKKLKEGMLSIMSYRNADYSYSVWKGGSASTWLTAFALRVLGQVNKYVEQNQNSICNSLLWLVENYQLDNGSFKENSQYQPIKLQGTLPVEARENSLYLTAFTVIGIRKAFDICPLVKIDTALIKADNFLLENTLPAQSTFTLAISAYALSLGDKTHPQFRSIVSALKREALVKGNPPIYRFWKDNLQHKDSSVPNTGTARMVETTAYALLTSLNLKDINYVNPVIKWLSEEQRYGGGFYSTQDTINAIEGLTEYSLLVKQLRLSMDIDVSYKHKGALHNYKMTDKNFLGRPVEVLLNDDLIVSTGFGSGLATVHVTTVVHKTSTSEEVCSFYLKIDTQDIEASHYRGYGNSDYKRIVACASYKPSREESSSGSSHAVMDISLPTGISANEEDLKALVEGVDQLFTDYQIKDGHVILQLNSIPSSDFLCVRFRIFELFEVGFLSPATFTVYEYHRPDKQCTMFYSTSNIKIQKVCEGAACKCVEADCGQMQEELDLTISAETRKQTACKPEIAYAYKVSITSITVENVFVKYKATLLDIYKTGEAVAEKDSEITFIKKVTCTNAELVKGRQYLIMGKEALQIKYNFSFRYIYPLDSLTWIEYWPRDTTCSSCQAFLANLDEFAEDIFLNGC

B1: modified MT-SP1 CB155 (Y146D/K224F) protease domain (protein)
chain: VVGGTDADEGEWPWQVSLHALGQGHICGASLISPNWLVSAAHCYIDDRGFRYSDPTQWTAFLGLHDQSQRSAPGVQERRLKRIISHPFFNDFTFDYDIALLELEKPAEYSSMVRPICLPDASHVFPAGKAIWVTGWGHTQDGGTGALILQKGEIRVINQTTCENLLPQQITPRMMCVGFLSGGVDSCQGDSGGPLSSVEADGRIFQAGVVSWGDGCAQRNFPGVYTRLPLFRDWIKENTGV
[1]
  kcat/Km (specificity constant), fluorogenic peptide cleavage: 3500 M⁻¹ s⁻¹
[2]
  kcat/Km (specificity constant), fluorogenic peptide cleavage: 91000 M⁻¹ s⁻¹
[3]
  kcat/Km (specificity constant), fluorogenic peptide cleavage: 3700 M⁻¹ s⁻¹
[4]
  Fraction of Hemolysis (protease-incubated purified complement protein added back to depleted sera): -0.00104
  kcat/Km (specificity constant) of cleavage of full length C2, in gel kinetics (SDS-PAGE densitometry time course): 72000 M⁻¹ s⁻¹
[5]
  Fraction of Hemolysis (protease-incubated purified complement protein added back to depleted sera): 0.072
[6]
  Fraction of Hemolysis (protease-incubated purified complement protein added back to depleted sera): 0.944
[7]
  Fraction of Hemolysis (protease-incubated purified complement protein added back to depleted sera): 0.943

B2: modified MT-SP1 CB331 (I41D/Y146D/K224L) protease domain (protein)
chain: VVGGTDADEGEWPWQVSLHALGQGHDCGASLISPNWLVSAAHCYIDDRGFRYSDPTQWTAFLGLHDQSQRSAPGVQERRLKRIISHPFFNDFTFDYDIALLELEKPAEYSSMVRPICLPDASHVFPAGKAIWVTGWGHTQDGGTGALILQKGEIRVINQTTCENLLPQQITPRMMCVGFLSGGVDSCQGDSGGPLSSVEADGRIFQAGVVSWGDGCAQRNLPGVYTRLPLFRDWIKENTGV
[5]
  C3 Western blot of samples of the alternative hemolysis assay (human plasma): cleave C3 as assessed by decreased C3 product as compared to the no protease treated plasma sample

B3: modified MT-SP1 CB387 (Y146D/Q175W/K224L) protease domain (protein)
chain: VVGGTDADEGEWPWQVSLHALGQGHICGASLISPNWLVSAAHCYIDDRGFRYSDPTQWTAFLGLHDQSQRSAPGVQERRLKRIISHPFFNDFTFDYDIALLELEKPAEYSSMVRPICLPDASHVFPAGKAIWVTGWGHTQDGGTGALILQKGEIRVINQTTCENLLPQWITPRMMCVGFLSGGVDSCQGDSGGPLSSVEADGRIFQAGVVSWGDGCAQRNLPGVYTRLPLFRDWIKENTGV
[5]
  C3 Western blot of samples of the alternative hemolysis assay (human plasma): cleave C3 as assessed by decreased C3 product as compared to the no protease treated plasma sample

B4: modified MT-SP1 CB42 (Y146E) protease domain (protein)
chain: VVGGTDADEGEWPWQVSLHALGQGHICGASLISPNWLVSAAHCYIDDRGFRYSDPTQWTAFLGLHDQSQRSAPGVQERRLKRIISHPFFNDWTFDYDIALLELEKPAEYSSMVRPICLPDASHVFPAGKAIWVTGWGHTQEGGTGALILQKGEIRVINQTTCENLLPQQITPRMMCVGFLSGGVDSCQGDSGGPLSSVEADGRIFQAGVVSWGDGCAQRNKPGVYTRLPLFRDWIKENTGV
[1]
  kcat/Km (specificity constant), fluorogenic peptide cleavage: 63000 M⁻¹ s⁻¹
[2]
  kcat/Km (specificity constant), fluorogenic peptide cleavage: 1.8e+06 M⁻¹ s⁻¹
[3]
  kcat/Km (specificity constant), fluorogenic peptide cleavage: 59000 M⁻¹ s⁻¹
[4]
  Fraction of Hemolysis (protease-incubated purified complement protein added back to depleted sera): 0.0714
  kcat/Km (specificity constant) of cleavage of full length C2, in gel kinetics (SDS-PAGE densitometry time course): 36000 M⁻¹ s⁻¹
[5]
  Fraction of Hemolysis (protease-incubated purified complement protein added back to depleted sera): 0.122
[6]
  Fraction of Hemolysis (protease-incubated purified complement protein added back to depleted sera): 1.04
[7]
  Fraction of Hemolysis (protease-incubated purified complement protein added back to depleted sera): 1.02

B5: modified MT-SP1 CB349 (I41D/Y146D/K224F) protease domain (protein)
chain: VVGGTDADEGEWPWQVSLHALGQGHDCGASLISPNWLVSAAHCYIDDRGFRYSDPTQWTAFLGLHDQSQRSAPGVQERRLKRIISHPFFNDFTFDYDIALLELEKPAEYSSMVRPICLPDASHVFPAGKAIWVTGWGHTQDGGTGALILQKGEIRVINQTTCENLLPQQITPRMMCVGFLSGGVDSCQGDSGGPLSSVEADGRIFQAGVVSWGDGCAQRNFPGVYTRLPLFRDWIKENTGV
[5]
  C3 Western blot of samples of the alternative hemolysis assay (human plasma): cleave C3 as assessed by decreased C3 product as compared to the no protease treated plasma sample
